From paper PMC10785194

Experiments:
Conditions in all cases: control: untreated
[1] = immunofluorescence, nuclear AR, C4-2B
[2] = CHX chase, AR protein stability by immunoblot
[3] = immunoblot, C4-2B

B1: androgen receptor (AR): OSMI-1 (protein)
parent chain: MEVQLGLGRVYPRPPSKTYRGAFQNLFQSVREVIQNPGPRHPEAASAAPPGASLLLLQQQQQQQQQQQQQQQQQQQQQQQETSPRQQQQQQGEDGSPQAHRRGPTGYLVLDEEQQPSQPQSALECHPERGCVPEPGAAVAASKGLPQQLPAPPDEDDSAAPSTLSLLGPTFPGLSSCSADLKDILSEASTMQLLQQQQQEAVSEGSSSGRAREASGAPTSSKDNYLGGTSTISDNAKELCKAVSVSMGLGVEALEHLSPGEQLRGDCMYAPLLGVPPAVRPTPCAPLAECKGSLLDDSAGKSTEDTAEYSPFKGGYTKGLEGESLGCSGSAAAGSSGTLELPSTLSLYKSGALDEAAAYQSRDYYNFPLALAGPPPPPPPPHPHARIKLENPLDYGSAWAAAAAQCRYGDLASLHGAGAAGPGSGSPSAAASSSWHTLFTAEEGQLYGPCGGGGGGGGGGGGGGGGGGGGGGGEAGAVAPYGYTRPPQGLAGQESDFTAPDVWYPGGMVSRVPYPSPTCVKSEMGPWMDSYSGPYGDMRLETARDHVLPIDYYFPPQKTCLICGDEASGCHYGALTCGSCKVFFKRAAEGKQKYLCASRNDCTIDKFRRKNCPSCRLRKCYEAGMTLGARKLKKLGNLKLQEEGEASSTTSPTEETTQKLTVSHIEGYECQPIFLNVLEAIEPGVVCAGHDNNQPDSFAALLSSLNELGERQLVHVVKWAKALPGFRNLHVDDQMAVIQYSWMGLMVFAMGWRSFTNVNSRMLYFAPDLVFNEYRMHKSRMYSQCVRMRHLSQEFGWLQITPQEFLCMKALLLFSIIPVDGLKNQKFFDELRMNYIKELDRIIACKRKNPTSCSRRFYQLTKLLDSVQPIARELHQFTFDLLIKSHMVSVDFPEMMAEIISVQVPKILSGKVKPIYFHTQ
[1]; glycan lost
  localisation_or_trafficking: increases
[2]; glycan lost
  degradation_or_half_life: increases
[3]; glycan lost
  other: AR S81 phosphorylation: increases

B2: androgen receptor (AR): Thiamet G (protein)
parent chain: B1 parent chain
[1]; glycan gained
  localisation_or_trafficking: decreases
[2]; glycan gained
  degradation_or_half_life: decreases
[3]; glycan gained
  other: AR S81 phosphorylation: decreases
